Reference: publication PMC4449784 (2015)

T1: HIV-1 Nef VY8 variant with Met at P3 peptide on HLA-B*35:01 (human)
T1 peptide: VPMRPMTY

T2: HIV-1 Nef VY8 variant with Ala at P3 peptide on HLA-B*35:01 (human)
T2 peptide: VPARPMTY

T3: HIV-1 Nef VY8 variant with Phe at P3 peptide on HLA-B*35:01 (human)
T3 peptide: VPFRPMTY

T4: HIV-1 Nef VY8 variant with Leu at P4 peptide on HLA-B*35:01 (human)
T4 peptide: VPLLPMTY

T5: HIV-1 Nef VY8 variant with Val at P3 peptide on HLA-B*35:01 (human)
T5 peptide: VPVRPMTY

B1: TCR-139 (A1-T/B11-J1) (TCR)
alpha AV1-1*01 AJ26*01 CDR3: CAVTDNYGQNFVF
beta BV11-2*01 BJ1-1*01 CDR3: CASSLDLVSTEAFF
B2: H127 (A1-J31/B11) (TCR)
alpha AV1-1*01 AJ31*01 CDR3: CAVTSGDARLMF
beta BV11-1*01 BJ2-7*01 CDR3: CASSSDIVSYEQYF
B3: A1-S/B11-J1 (TCR)
alpha AV1-1*01 AJ26*01 CDR3: CAVSDNYGQNFVF
beta BV11-2*01 BJ1-1*01 CDR3: CASSLDLVSTEAFF

Legend:
Test in all cases: cytokine release
[1] = molecular target: T1, HIV-1 Nef VY8 variant with Met at P3 …
[2] = molecular target: T2, HIV-1 Nef VY8 variant with Ala at P3 …
[3] = molecular target: T3, HIV-1 Nef VY8 variant with Phe at P3 …
[4] = molecular target: T4, HIV-1 Nef VY8 variant with Leu at P4 …
[5] = molecular target: T5, HIV-1 Nef VY8 variant with Val at P3 …

Binder | binding result [1] | binding result [2] | binding result [3] | binding result [4] | binding result [5]
B1 | recognises | recognises | recognises | no recognition | recognises
B2 | recognises | no recognition | no recognition | – | no recognition
B3 | – | – | – | no recognition | –
